Drawing on PMC5477170, “Biochemical characterization of an enantioselective esterase from Brevundimonas sp. LY-2” (Microbial Cell Factories, 2017), this text covers Km, kcat and kcat/Km for 1 substance.

Series [1] deals with T1, CCCC(=O)Oc1ccc([N+](=O)[O-])cc1.
T1 construct: signal peptide (residues 1-28) removed; C-terminal His-tag, pET-29a(+); E. coli BL21(DE3); full ORF 306 aa; predicted 29,451 Da, SDS-PAGE ~30 kDa; gel filtration 62 kDa, dimer; N-terminus from primer (M)ATAEP
Kind of series: p-nitrophenyl ester hydrolysis, Lineweaver-Burk. Conditions: pH and temperature not stated for this assay. It counts as biochemical, Brevundimonas sp. LY-2. The source says: (§1) p-nitrophenyl ester hydrolysis, Lineweaver-Burk on LacH

Series [2] relates to T2, CC(=O)Oc1ccc([N+](=O)[O-])cc1.
T2 construct: signal peptide (residues 1-28) removed; C-terminal His-tag, pET-29a(+); E. coli BL21(DE3); full ORF 306 aa; predicted 29,451 Da, SDS-PAGE ~30 kDa; gel filtration 62 kDa, dimer; N-terminus from primer (M)ATAEP
Kind of series: p-nitrophenyl ester hydrolysis, Lineweaver-Burk. Type of series: biochemical, Brevundimonas sp. LY-2. Particulars: pH and temperature not stated for this assay.
From the text: as §1

Series [3] relates to T3, CCCCCCCC(=O)Oc1ccc([N+](=O)[O-])cc1.
T3 construct: signal peptide (residues 1-28) removed; C-terminal His-tag, pET-29a(+); E. coli BL21(DE3); full ORF 306 aa; predicted 29,451 Da, SDS-PAGE ~30 kDa; gel filtration 62 kDa, dimer; N-terminus from primer (M)ATAEP
The series can be described thus: p-nitrophenyl ester hydrolysis, Lineweaver-Burk. Type of series: biochemical, Brevundimonas sp. LY-2. Particulars: pH and temperature not stated for this assay.
From the text: as §1

In series [4] the test system is T4, CCCCCC(=O)Oc1ccc([N+](=O)[O-])cc1.
T4 construct: signal peptide (residues 1-28) removed; C-terminal His-tag, pET-29a(+); E. coli BL21(DE3); full ORF 306 aa; predicted 29,451 Da, SDS-PAGE ~30 kDa; gel filtration 62 kDa, dimer; N-terminus from primer (M)ATAEP
Kind of series: p-nitrophenyl ester hydrolysis, Lineweaver-Burk. It counts as biochemical, Brevundimonas sp. LY-2. Conditions: pH and temperature not stated for this assay.
From the text: as §1

The subject of series [5] is CCOC(=O)C(C)OC(=O)c1cc(Oc2ccc(C(F)(F)F)cc2Cl)ccc1[N+](=O)[O-]. Kind of series: purified protein. Conditions: 50 mM sodium phosphate, pH 7.0, 40 °C.

One may read the Km as the concentration of substrate that gives half-maximal velocity. A word on the kcat: it is the number of substrate molecules converted per active site and unit of time at saturation. What is called kcat/Km is the turnover number divided by the Michaelis constant. LacH (Brevundimonas sp. LY-2): the Michaelis constant (Km) in series [1] is 185 ± 9 µM; in series [2], 147 ± 8 µM; in series [3], 335 ± 16 µM; in series [4], 208 ± 12 µM; in series [5], 67 ± 2 µM. Further, the kcat worked out at 7.48 ± 0.45 s⁻¹ in series [1]; 8.39 ± 0.28 s⁻¹ in series [2]; 0.767 ± 0.06 s⁻¹ in series [3]; 3.47 ± 0.13 s⁻¹ in series [4]; 0.87 ± 0.09 s⁻¹ in series [5]. The catalytic efficiency (kcat/Km) in series [1] was 40400 M⁻¹ s⁻¹; in series [2] it was 50100 M⁻¹ s⁻¹; in series [3] it was 2290 M⁻¹ s⁻¹; in series [4], 16700 M⁻¹ s⁻¹; in series [5], 12900 M⁻¹ s⁻¹.
